Laboratory results taken from patent publication US20260103748A1 (NAVINCI DIAGNOSTICS, published 2026).
One block for each binder: values may come before it.

Legend:
Beta-catenin = biological target: T1, Beta-catenin (UniProt P35222 2-781); assay: in situ proximity ligation assay on fixed MCF-7 cells, with blocking oligonucleotide 13+13, RCA and Cy5 detection
T1 construct: Endogenous protein in fixed MCF-7 cells, detected through a primary antibody and oligonucleotide-conjugated secondary antibodies (in situ PLA); also called Beta-caternin
T1 sequence (looked up): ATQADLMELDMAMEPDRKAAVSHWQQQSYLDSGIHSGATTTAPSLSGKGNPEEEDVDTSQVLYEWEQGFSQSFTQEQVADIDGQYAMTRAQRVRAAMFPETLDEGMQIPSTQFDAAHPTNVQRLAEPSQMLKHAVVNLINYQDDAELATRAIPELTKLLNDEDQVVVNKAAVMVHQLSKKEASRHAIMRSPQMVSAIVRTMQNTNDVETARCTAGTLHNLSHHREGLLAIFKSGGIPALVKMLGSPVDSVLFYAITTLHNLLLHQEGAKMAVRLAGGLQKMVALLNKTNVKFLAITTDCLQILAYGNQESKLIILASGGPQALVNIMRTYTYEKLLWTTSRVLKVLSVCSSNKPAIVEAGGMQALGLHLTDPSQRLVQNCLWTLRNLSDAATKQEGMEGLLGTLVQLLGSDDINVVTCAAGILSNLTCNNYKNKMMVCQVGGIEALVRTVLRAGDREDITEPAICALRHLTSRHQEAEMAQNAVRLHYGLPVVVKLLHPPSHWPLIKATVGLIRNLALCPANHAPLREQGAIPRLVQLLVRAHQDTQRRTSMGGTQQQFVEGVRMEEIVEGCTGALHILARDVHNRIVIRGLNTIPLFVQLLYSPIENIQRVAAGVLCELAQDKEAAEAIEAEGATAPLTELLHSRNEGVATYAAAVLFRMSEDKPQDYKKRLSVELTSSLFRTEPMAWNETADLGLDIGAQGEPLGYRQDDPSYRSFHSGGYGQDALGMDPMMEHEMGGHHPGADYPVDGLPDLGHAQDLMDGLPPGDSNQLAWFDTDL
Protocol: The validation of the design was performed on MCF-7 cells, using a high concentration of proximity probes (conjugated secondary antibodies), probe A: anti-Mouse, with padlocks hybridized; probe B: anti-Rabbit with ligation templates (24 nt hybridization site, 12 nt on each end), 50 nM each). After incubation the fixed MCF-7 cells with (one or both primary antibody for Beta-caternin and E-cadherin) or without the primary antibodies (-primary) and washing, the secondary antibodies with (1 uM blocking oligos, 13 nt hybridization site on both ends) or without blocking oligos were applied to the MCF-7 cells.
When the probe A and B bind in close proximity, the blocking oligonucleotide can be competed away. The signal here results from the rolling cycle amplification products, representing the close proximity of Beta-catenin and E-cadherin detected by Cy5 labelled detection oligonucleotides, the nuclei were stained with DAPI.

AKT2 = biological target: T2, AKT2 (human, UniProt P31751 1-481); assay: multiplex in situ PLA on fixed human breast cancer cells with or without EGF
T2 construct: Endogenous protein in fixed human breast cancer cells (isPLA)
Protocol: (§1) Detection was performed in three imaging rounds with stripping of the specific fluorescently-labelled detection probe between rounds. DAPI staining is shown in each image. Three isPLA reactions are detected per round using either a FITC, Cy3 or Cy5 filter. The isPLA assays target protein phosphorylation-protein or protein-protein interactions.
(§2) In situ PLA probes using the set-up illustrated in FIG. 3 were generated to target protein-protein interactions or protein-protein phosphorylation targets. Each isPLA probe set contains a unique oligonucleotide sequence that is complimentary to a fluorescent-conjugated detection oligonucleotide. The detection oligos are conjugated to either FITC, Cy3 or Cy5.
(§3) Following probe incubation, the padlocks were circularised by ligation, subjected to RCA to generate RCA products and detected with fluorescently labelled detection probes. Detection was performed in three rounds (see FIG. 11). […] Next, the detection oligos were stripped and new detection oligos were added targeting phosphorylated Grb2, phosphorylated Pi3K and phosphorylated STAT3. The same procedure was repeated again to detect phosphorylated Pi3K-PanAKT interaction, STAT5a-JAK2 interaction and JAK1-JAK3 interaction.

JAK2 = biological target: T3, JAK2 (human, UniProt O60674 1-1132); assay: as above
T3 construct: Endogenous protein in fixed human breast cancer cells (isPLA)
Protocol: as §1, §2, §3

T3 sequence (O60674 whole entry): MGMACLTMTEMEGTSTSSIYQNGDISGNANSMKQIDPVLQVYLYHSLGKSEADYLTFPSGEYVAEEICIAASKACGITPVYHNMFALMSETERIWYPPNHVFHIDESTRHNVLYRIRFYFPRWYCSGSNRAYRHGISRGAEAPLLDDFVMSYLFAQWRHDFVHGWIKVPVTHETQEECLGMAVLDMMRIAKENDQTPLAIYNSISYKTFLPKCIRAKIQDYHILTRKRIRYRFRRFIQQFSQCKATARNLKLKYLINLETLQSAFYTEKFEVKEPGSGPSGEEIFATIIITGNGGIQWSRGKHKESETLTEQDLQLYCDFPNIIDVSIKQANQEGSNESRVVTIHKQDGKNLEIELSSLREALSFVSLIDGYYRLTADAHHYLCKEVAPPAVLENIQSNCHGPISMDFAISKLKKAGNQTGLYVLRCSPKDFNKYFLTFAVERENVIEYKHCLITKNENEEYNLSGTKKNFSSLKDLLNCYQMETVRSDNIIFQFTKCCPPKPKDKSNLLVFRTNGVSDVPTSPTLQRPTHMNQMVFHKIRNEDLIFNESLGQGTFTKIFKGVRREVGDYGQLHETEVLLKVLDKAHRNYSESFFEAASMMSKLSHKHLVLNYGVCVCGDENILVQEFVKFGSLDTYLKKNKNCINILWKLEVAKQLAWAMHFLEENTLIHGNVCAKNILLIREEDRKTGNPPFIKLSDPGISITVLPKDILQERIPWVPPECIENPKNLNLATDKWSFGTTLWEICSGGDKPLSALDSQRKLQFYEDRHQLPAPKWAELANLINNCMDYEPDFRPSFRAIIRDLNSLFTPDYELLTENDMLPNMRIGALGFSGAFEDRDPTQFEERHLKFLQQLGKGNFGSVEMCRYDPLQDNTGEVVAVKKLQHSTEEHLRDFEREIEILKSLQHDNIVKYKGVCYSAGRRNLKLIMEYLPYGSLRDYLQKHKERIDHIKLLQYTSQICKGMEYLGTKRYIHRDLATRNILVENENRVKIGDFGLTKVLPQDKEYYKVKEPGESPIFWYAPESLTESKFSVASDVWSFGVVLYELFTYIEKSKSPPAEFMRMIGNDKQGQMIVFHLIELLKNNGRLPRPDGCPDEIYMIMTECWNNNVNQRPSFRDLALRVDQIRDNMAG
T2 sequence (P31751 whole entry): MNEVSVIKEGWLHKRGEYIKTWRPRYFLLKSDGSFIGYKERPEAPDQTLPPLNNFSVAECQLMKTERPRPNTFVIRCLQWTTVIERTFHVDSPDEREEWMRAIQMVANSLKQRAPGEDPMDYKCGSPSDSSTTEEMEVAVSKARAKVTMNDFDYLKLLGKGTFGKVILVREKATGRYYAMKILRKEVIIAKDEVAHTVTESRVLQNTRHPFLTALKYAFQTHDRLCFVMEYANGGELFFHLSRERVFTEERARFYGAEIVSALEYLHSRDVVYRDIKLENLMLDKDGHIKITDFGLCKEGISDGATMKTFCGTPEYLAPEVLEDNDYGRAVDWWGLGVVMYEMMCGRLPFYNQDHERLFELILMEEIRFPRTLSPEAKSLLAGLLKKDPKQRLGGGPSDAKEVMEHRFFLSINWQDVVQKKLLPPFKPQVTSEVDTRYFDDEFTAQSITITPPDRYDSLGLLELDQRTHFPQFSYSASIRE

- binding result (Beta-catenin): binds
B1: E-cadherin (other, UniProt P12830 155-882, looked up)
chain: DWVIPPISCPENEKGPFPKNLVQIKSNKDKEGKVFYSITGQGADTPPVGVFIIERETGWLKVTEPLDRERIATYTLFSHAVSSNGNAVEDPMEILITVTDQNDNKPEFTQEVFKGSVMEGALPGTSVMEVTATDADDDVNTYNAAIAYTILSQDPELPDKNMFTINRNTGVISVVTTGLDRESFPTYTLVVQAADLQGEGLSTTATAVITVTDTNDNPPIFNPTTYKGQVPENEANVVITTLKVTDADAPNTPAWEAVYTILNDDGGQFVVTTNPVNNDGILKTAKGLDFEAKQQYILHVAVTNVVPFEVSLTTSTATVTVDVLDVNEAPIFVPPEKRVEVSEDFGVGQEITSYTAQEPDTFMEQKITYRIWRDTANWLEINPDTGAISTRAELDREDFEHVKNSTYTALIIATDNGSPVATGTGTLLLILSDVNDNAPIPEPRTIFFCERNPKPQVINIIDADLPPNTSPFTAELTHGASANWTIQYNDPTQESIILKPKMALEVGDYKINLKLMDNQNKDQVTTLEVSVCDCEGAAGVCRKAQPVEAGLQIPAILGILGGILALLILILLLLLFLRRRAVVKEPLLPPEDDTRDNVYYYDEEGGGEEDQDFDLSQLHRGLDARPEVTRNDVAPTLMSVPRYLPRPANPDEIGNFIDENLKAADTDPTAPPYDSLLVFDYEGSGSEAASLSSLNSSESDKDQDYDYLNEWGNRFKKLADMYGGGEDD
notes: Endogenous protein in fixed MCF-7 cells, detected through a primary antibody and oligonucleotide-conjugated secondary antibodies (in situ PLA)

- binding result (AKT2): binds
B2: AKT3 (enzyme, human, UniProt Q9Y243 2-479, looked up)
chain: SDVTIVKEGWVQKRGEYIKNWRPRYFLLKTDGSFIGYKEKPQDVDLPYPLNNFSVAKCQLMKTERPKPNTFIIRCLQWTTVIERTFHVDTPEEREEWTEAIQAVADRLQRQEEERMNCSPTSQIDNIGEEEMDASTTHHKRKTMNDFDYLKLLGKGTFGKVILVREKASGKYYAMKILKKEVIIAKDEVAHTLTESRVLKNTRHPFLTSLKYSFQTKDRLCFVMEYVNGGELFFHLSRERVFSEDRTRFYGAEIVSALDYLHSGKIVYRDLKLENLMLDKDGHIKITDFGLCKEGITDAATMKTFCGTPEYLAPEVLEDNDYGRAVDWWGLGVVMYEMMCGRLPFYNQDHEKLFELILMEDIKFPRTLSSDAKSLLSGLLIKDPNKRLGGGPDDAKEIMRHSFFSGVNWQDVYDKKLVPPFKPQVTSETDTRYFDEEFTAQTITITPPEKYDEDGMDCMDNERRPHFPQFSYSASGRE
notes: Endogenous protein in fixed human breast cancer cells (isPLA)

- binding result (JAK2): binds
B3: STAT5a (other, human, UniProt P42229 1-794, looked up)
chain: MAGWIQAQQLQGDALRQMQVLYGQHFPIEVRHYLAQWIESQPWDAIDLDNPQDRAQATQLLEGLVQELQKKAEHQVGEDGFLLKIKLGHYATQLQKTYDRCPLELVRCIRHILYNEQRLVREANNCSSPAGILVDAMSQKHLQINQTFEELRLVTQDTENELKKLQQTQEYFIIQYQESLRIQAQFAQLAQLSPQERLSRETALQQKQVSLEAWLQREAQTLQQYRVELAEKHQKTLQLLRKQQTIILDDELIQWKRRQQLAGNGGPPEGSLDVLQSWCEKLAEIIWQNRQQIRRAEHLCQQLPIPGPVEEMLAEVNATITDIISALVTSTFIIEKQPPQVLKTQTKFAATVRLLVGGKLNVHMNPPQVKATIISEQQAKSLLKNENTRNECSGEILNNCCVMEYHQATGTLSAHFRNMSLKRIKRADRRGAESVTEEKFTVLFESQFSVGSNELVFQVKTLSLPVVVIVHGSQDHNATATVLWDNAFAEPGRVPFAVPDKVLWPQLCEALNMKFKAEVQSNRGLTKENLVFLAQKLFNNSSSHLEDYSGLSVSWSQFNRENLPGWNYTFWQWFDGVMEVLKKHHKPHWNDGAILGFVNKQQAHDLLINKPDGTFLLRFSDSEIGGITIAWKFDSPERNLWNLKPFTTRDFSIRSLADRLGDLSYLIYVFPDRPKDEVFSKYYTPVLAKAVDGYVKPQIKQVVPEFVNASADAGGSSATYMDQAPSPAVCPQAPYNMYPQNPDHVLDQDGEFDLDETMDVARHVEELLRRPMDSLDSRLSPPAGLFTSARGSLS
notes: as for B2
